Experimental data: publication PMC548335 (Nucleic Acids Research, 2005)

T1: GST-Pta1 (yeast, UniProt Q01329 1-785)
T1 sequence: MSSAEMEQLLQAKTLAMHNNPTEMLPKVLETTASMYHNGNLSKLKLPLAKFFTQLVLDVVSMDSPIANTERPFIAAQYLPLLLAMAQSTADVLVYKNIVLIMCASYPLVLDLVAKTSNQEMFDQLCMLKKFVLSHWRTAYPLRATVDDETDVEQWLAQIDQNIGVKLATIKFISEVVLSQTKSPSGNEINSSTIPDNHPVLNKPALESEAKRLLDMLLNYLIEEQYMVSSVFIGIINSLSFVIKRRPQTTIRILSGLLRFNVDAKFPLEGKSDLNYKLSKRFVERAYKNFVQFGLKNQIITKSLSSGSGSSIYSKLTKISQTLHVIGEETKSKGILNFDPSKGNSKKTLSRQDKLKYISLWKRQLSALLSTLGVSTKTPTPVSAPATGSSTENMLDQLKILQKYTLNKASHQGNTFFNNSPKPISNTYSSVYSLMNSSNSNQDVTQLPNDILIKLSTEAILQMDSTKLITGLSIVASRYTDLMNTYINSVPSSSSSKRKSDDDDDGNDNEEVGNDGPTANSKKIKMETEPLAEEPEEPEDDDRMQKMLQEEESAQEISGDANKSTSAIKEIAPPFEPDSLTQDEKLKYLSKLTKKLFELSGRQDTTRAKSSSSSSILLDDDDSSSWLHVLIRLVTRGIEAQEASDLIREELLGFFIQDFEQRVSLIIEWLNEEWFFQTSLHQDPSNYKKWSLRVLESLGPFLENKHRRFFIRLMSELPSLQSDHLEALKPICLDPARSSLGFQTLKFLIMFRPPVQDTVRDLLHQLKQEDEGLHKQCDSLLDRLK

T2: GST-hTFIIB (human, UniProt Q00403 1-316)
T2 sequence: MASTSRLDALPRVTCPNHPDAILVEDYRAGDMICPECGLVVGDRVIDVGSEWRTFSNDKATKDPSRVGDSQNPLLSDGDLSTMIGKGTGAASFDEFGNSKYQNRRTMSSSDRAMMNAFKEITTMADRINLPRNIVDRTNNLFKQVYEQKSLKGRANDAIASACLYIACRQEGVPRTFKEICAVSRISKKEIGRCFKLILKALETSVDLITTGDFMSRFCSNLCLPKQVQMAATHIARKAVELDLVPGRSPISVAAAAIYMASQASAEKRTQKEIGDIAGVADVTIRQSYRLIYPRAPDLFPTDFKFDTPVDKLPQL


How the values were obtained:
GST-Pta1 = target: T1, GST-Pta1; experiment: pull-down
GST-hTFIIB = target: T2, GST-hTFIIB; experiment: pull-down

Binder | binding result (GST-Pta1) | binding result (GST-hTFIIB)
Hat-hSsu72Δ1-12 (domain or fragment) SSNQNRSMEAHNILSKRGFSVRSFGTGTHVKLPGPAPDKPNVYDFKTTYDQMYNDLLRKDKELYTQNGILHMLDRNKRIKPRPERFQNCKDLFDLILTCEERVYDQVVEDLNSREQETCQPVHVVNVDIQDNHEEATLGAFLICELCQCIQHTEDMENEIDELLQEFEEKSGRTFLHTVCFY | binds | binds
Hat-hSsu72 (natural protein) MPSSPLRVAVVCSSNQNRSMEAHNILSKRGFSVRSFGTGTHVKLPGPAPDKPNVYDFKTTYDQMYNDLLRKDKELYTQNGILHMLDRNKRIKPRPERFQNCKDLFDLILTCEERVYDQVVEDLNSREQETCQPVHVVNVDIQDNHEEATLGAFLICELCQCIQHTEDMENEIDELLQEFEEKSGRTFLHTVCFY | binds | binds
